Patent publication US20210403576A1 (HELIXMITH, published 2021)
Changes are numbered by the printed parent chain.

B1: VH6/Vk0 (antibody, IgG1, V domains shown)
VH: QVQLVQSGAEVKKPGSSVKVSCKASGYSFPTHWITWVRQAPGQGLEWMGTIDPTDSYNFYGPSFQGRVTITADKSTSTAYMELSSLRSEDTAVYYCARDGNYYDSRGYYYDTFDMWGQGTLVTVSS
VL: DIQMTQSPSFLSASVGDRVTITCRASQGISTYLAWYQQKPGTAPKLLIYSASTLESGVPSRFSGSGSGTDFTLTISSLQPEDSATYYCQQADSFPLTFGGGTKVEIK
notes: Full IgG1/kappa expressed in HEK 293 EBNA cells
B2: VH2/Vk2 (antibody, IgG1, V domains shown)
VH: EVQLVQSGAEVKKPGESLKISCKGSGYSFPTHWITWVRQMPGKGLEWMGTIDPTDSYNFYGPSFQGQVTISADKSISTAYLQWSSLKASDTAMYYCARDGNYYDSRGYYYDTFDMWGQGTLVTVSS
VL: B1 VL with F10S, T42K, S83F
notes: as for B1
B3: VH0/Vk2 (antibody, IgG1, V domains shown)
VH: B2 VH with E1Q, K19R, K23Q, Q67H, K74S, I76S
VL: B1 VL with F10S, T42K, S83F
notes: as for B1
B4: VH0/Vk0 (antibody, IgG1, V domains shown)
VH: B2 VH with E1Q, K19R, K23Q, Q67H, K74S, I76S
VL: B1 VL
notes: Full IgG1/kappa with the variable domains of 1E4; also called 1E4 antibody variant including the constant domain where the residues were substituted
B5: VH2/Vk0 (antibody, IgG1, V domains shown)
VH: B2 VH
VL: B1 VL
notes: as for B1
B6: VH6/Vk2 (antibody, IgG1, V domains shown)
VH: B1 VH
VL: B1 VL with F10S, T42K, S83F
notes: as for B1
B7: VH4/Vk5 (antibody, IgG1, V domains shown)
VH: B1 VH with K23Q, A24G, K74S, V93M
VL: EIVLTQSPGTLSLSPGERATLSCRASQGISTYLAWYQQKPGQAPRLLIYSASTLESGIPDRFSGSGSGTDFTLTISRLEPEDFATYYCQQADSFPLTFGGGTKVEIK
notes: as for B1

Biological target: c-Met protein receptors on HUVEC (human, UniProt P08581 25-1390)
Experiment: cell-based or functional assay

Sequence of c-Met protein receptors on HUVEC (P08581 25-1390): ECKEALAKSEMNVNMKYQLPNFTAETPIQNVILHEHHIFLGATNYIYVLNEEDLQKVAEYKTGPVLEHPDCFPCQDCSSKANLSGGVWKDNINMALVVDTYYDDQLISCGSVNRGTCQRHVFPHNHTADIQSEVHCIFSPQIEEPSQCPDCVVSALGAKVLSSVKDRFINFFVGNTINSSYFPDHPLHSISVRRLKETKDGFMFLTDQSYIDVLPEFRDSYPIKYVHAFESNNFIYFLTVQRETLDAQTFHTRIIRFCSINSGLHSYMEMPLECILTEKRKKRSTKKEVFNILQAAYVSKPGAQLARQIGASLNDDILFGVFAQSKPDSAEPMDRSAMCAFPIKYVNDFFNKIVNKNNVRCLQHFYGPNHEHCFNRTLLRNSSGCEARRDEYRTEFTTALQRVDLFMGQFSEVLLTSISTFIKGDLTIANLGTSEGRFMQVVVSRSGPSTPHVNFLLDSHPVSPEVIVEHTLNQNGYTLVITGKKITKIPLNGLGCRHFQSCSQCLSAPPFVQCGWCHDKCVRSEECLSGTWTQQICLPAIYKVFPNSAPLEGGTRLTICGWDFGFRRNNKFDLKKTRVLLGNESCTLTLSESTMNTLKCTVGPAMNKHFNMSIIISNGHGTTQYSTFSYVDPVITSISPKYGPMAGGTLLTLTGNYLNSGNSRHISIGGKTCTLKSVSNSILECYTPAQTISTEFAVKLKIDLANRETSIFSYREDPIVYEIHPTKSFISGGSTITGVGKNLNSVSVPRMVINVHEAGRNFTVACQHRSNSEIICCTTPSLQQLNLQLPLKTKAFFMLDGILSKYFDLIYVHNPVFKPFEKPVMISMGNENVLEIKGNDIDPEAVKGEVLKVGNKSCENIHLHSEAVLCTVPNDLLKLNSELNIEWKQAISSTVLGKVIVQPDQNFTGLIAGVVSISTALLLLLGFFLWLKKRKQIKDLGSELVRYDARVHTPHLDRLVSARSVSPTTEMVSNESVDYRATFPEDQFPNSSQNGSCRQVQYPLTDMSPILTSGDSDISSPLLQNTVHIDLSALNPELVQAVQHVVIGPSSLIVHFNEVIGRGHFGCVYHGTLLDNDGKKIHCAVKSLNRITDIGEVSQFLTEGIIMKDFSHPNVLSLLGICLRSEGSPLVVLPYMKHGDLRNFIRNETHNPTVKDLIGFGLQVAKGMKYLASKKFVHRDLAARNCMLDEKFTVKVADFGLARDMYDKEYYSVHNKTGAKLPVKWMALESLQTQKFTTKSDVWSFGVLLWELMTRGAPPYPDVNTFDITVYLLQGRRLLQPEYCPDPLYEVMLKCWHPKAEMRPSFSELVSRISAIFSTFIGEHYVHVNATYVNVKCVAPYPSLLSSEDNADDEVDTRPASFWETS

| Index 1 (Relative Migration divided by the Average 157.5), HUVEC migration assay | Index 2 (Relative Migration relative to VH0/Vk0), HUVEC migration assay | Relative Migration (%), HUVEC migration assay, 90 ng/ml [%] | Binder |
| --- | --- | --- | --- |
| 0.962 | 1.01 | 152 | B1 |
| 1.12 | 1.18 | 176 | B2 |
| 1.03 | 1.09 | 163 | B3 |
| 0.951 | 1 | 150 | B4 |
| 0.993 | 1.04 | 156 | B5 |
| 0.979 | 1.03 | 154 | B6 |
| 1.09 | 1.14 | 171 | B7 |

Biological target: T1, human c-Met (Sino Biological) (human, UniProt P08581 25-932, limits assumed)
T1 construct: Analyte in the Biacore assay; also called antigen (c-Met); printed as "human c-Met antibody (Sino Biological, Beijing, China)"
Experiment: derived from the Biacore KD, normalised to VH0/Vk0
Protocol: (§1) The candidate antibodies selected in Example 4 were measured for binding affinity for the antigen (c-Met) with the aid of Biacore. […] The anti-c-Met antibodies to be analyzed were immobilized on Protein A CM5 chips (GE Healthcare, Little Chalfont, UK) through which human c-Met antibody (Sino Biological, Beijing, China) with various concentrations ranging 0.15 to 2 nM was allowed to pass, thereby acquiring sensorgrams. On the basis of the acquired sensorgrams, association constants kₒₙ and dissociation constants koff were measured to calculate Ko value, the ratio koff/kₒₙ.
(§2) In order to select a final candidate group from the 21 candidate antibodies selected in Example 4, comparison was made according to criteria specified into expression level, binding affinity for antigen, thermal stability, and biopotency. As a rule, the expression level is considered to be the most important index when time and cost are taken into consideration from a point of view of production. […] Thereafter, degrees of improvement in each of the remaining candidate antibodies compared to the reference antibody (VH0/Vk0) were digitized with regard to the selected indices. For normalization, analysis index measurements for individual candidate antibodies were divided by average values to give ratios (index 1) which were in turn divided by the measurement for the antibody VH0/Vk0 (index 2) (Tables 6 to 9). In addition, the measurements for the four indices were multiplied for comprehensive comparison of the four indices of the candidate antibodies. The final results (index 3) are listed in a descending order in Table 10.

T1 sequence (P08581 25-932 limits assumed): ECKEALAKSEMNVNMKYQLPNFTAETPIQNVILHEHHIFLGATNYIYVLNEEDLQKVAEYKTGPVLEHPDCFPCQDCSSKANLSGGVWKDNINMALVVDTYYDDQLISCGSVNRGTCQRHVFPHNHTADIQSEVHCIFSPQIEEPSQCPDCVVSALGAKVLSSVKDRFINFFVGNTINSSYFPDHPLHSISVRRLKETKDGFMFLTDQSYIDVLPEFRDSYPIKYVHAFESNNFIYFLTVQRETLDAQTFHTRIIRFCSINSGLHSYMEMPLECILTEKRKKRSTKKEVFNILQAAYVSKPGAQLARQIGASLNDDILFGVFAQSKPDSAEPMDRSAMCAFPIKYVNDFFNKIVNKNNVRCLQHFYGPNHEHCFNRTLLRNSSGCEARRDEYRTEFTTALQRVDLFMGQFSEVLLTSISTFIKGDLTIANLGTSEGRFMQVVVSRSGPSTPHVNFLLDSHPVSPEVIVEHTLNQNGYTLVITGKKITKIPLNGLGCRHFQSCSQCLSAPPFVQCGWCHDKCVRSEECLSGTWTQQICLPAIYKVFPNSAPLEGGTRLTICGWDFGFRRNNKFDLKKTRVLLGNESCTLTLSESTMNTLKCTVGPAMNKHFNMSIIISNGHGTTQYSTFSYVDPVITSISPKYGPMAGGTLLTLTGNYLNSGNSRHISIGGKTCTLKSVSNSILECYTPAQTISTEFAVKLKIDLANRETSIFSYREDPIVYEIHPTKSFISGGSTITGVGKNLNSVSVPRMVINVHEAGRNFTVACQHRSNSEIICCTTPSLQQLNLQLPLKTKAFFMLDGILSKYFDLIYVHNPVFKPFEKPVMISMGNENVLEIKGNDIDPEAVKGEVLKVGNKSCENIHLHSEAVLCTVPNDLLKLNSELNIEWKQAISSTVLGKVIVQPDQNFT

| Index 2 (binding affinity, inverse KD relative to VH0/Vk0) | Binder |
| --- | --- |
| 1.26 | B1 |
| 1.04 | B2 |
| 1.02 | B3 |
| 1 | B4 |
| 0.974 | B5 |
| 1.18 | B6 |
| 0.989 | B7 |

Biological target: T1, human c-Met (Sino Biological)
Experiment: derived from the Biacore KD, printed 'Average' 3.52 x10^-10 M divided by the KD
Protocol: as §1, §2

| Index 1 (binding affinity, inverse KD relative to the Average 3.52) | Binder |
| --- | --- |
| 0.85 | B1 |
| 0.701 | B2 |
| 0.688 | B3 |
| 0.677 | B4 |
| 0.659 | B5 |
| 0.8 | B6 |
| 0.669 | B7 |

Biological target: T1, human c-Met (Sino Biological)
Experiment: SPR (Biacore T200), IgG captured on Protein A CM5 chip, c-Met 0.15-2 nM as analyte
Protocol: as §1

| Kd [nM] | Relative KD to VMDO2 VH0/Vk0 | Binder |
| --- | --- | --- |
| 0.414 | 0.8 | B1 |
| 0.502 | 0.97 | B2 |
| 0.512 | 0.98 | B3 |
| 0.52 | 1 | B4 |
| 0.534 | 1.03 | B5 |
| 0.44 | 0.85 | B6 |
| 0.526 | 1.01 | B7 |
